These results are taken from paper PMC6580467.

This test concerns the target C-type lectin-like receptor 2 (CLEC-2) on platelets (human (endogenous in platelets of healthy donors)) (UniProt Q9P126).
UniProt Q9P126, sequence (Q9P126 whole entry): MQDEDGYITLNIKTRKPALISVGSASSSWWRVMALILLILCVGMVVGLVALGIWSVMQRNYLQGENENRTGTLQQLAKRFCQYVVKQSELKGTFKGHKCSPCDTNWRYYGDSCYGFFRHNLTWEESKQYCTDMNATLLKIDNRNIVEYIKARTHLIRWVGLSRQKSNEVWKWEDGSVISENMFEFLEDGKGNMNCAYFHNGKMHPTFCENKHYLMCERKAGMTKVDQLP

B1: Podoplanin (PDPN), endogenous on human cancer cell lines (natural protein)
chain: ASTGQPEDDTETTGLEGGVAMPGAEDDVVTPGTSEDRYKSGLTTLVATSVNSVTGIRIEDLPTSESTVHAQEQSPSATASNVATSHSTEKVDGDTQTTVEKDGLSTVTLVGIIVGVLLAIGFIGAIIVVVMRKMSGRYSP
On to B1, for which the inhibition by mAb SZ168 (10, 15 μg/mL) of platelet aggregation induced by NCI-H226 cells in human platelet-rich plasma; maximal inhibition ratio is 74.2%; the inhibition by mAb SZ168 (15, 20 μg/mL) of platelet aggregation induced by C8161 cells in human platelet-rich plasma; maximal inhibition ratio at 20 μg/mL was 73.9%; the inhibition by mAb SZ168 (20, 25 μg/mL) of platelet aggregation induced by CNE-2 cells in human platelet-rich plasma; maximal inhibition ratio at 25 μg/mL came out at 77.1%.

B2: Human podoplanin expressed on CHO cells (CHO/hPDPN) (natural protein)
chain: B1 chain
On to B2, for which the inhibition by mAb SZ168 (10, 15 μg/mL) of platelet aggregation induced by CHO/hPDPN cells in human platelet-rich plasma; maximal inhibition ratio is 72.6%.
